The text below walks through data of the RNAGym collection of RNA variant scans (doi:10.1073/pnas.2313332121).

The chains are these.
B1: TPR t1 (parent)
chain: GACCAAUCUGCCCUCAGAGCUCGAGAACAUCUUCGGAUGCAGAGGAGGCAGGCUUCGGUGGCGCGAUAGCGCCAACGUCCUCAACCUCCAAUGCAUCCCACCACAUGAUGAUGCCUGAAGAGCCUUGGUUUUUUG

Variants of B1 are the subject of the data set. Nature of the data set: polymerase ribozyme fitness, log enrichment relative to wild type (log ratio); higher = more active; in vitro selection for triplet polymerase activity. In a few lines: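 Input and output libraries were sequenced on Illumina after a single in vitro selection round, run in triplicate on PCR-built, transcribed mutant libraries of each subunit of a heterodimeric triplet polymerase ribozyme. Selection annealed libraries to a biotinylated primer, the partner subunit and triplets, incubated them frozen at −7 °C, then gel-excised extended constructs for streptavidin-bead capture and RT-PCR. Genotypes with ≥10 input reads and ≥1 read per output were kept. Fitness is the logarithm, taken in base 2, of genotype enrichment divided by wild-type enrichment, using inverse-variance-weighted replicate averages.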
For the variant C12A C20A G63A, the “polymerase ribozyme fitness (log ratio)” value is -3.86. Then C12A C28U C40U A41U, with -4; and C11U U59A C73A A91G A118U, with -2.19; and C11U G51C C85U, with -4.53. As for C12A A18G C20U A37U A50C C64U U92A, the “polymerase ribozyme fitness (log ratio)” value is -4.28. Then C12A A16C A29U G47A G61A, with -3.43; and C11U U32A G93A A100U A105G, with -4.99; and C11U U87G C102U, with -1.67. Take C12A C22G G36U U116C G120U: the “polymerase ribozyme fitness (log ratio)” value was -3.27. Then C11U G39C U59C U81A A84G, with -3.33.

With C11U G65U C82U C104A U112A, the “polymerase ribozyme fitness (log ratio)” value is -6.27. Then C12A C15G C56G, with -2.69; and C12A C20U C114U, with -0.454; and C12A A16G U81C G120C, with 0.152. Then C12A A41G, with -0.758.

On to C11U G60A U106C G128C, for which the “polymerase ribozyme fitness (log ratio)” value is -3.82.

C11U G44C C101A: the “polymerase ribozyme fitness (log ratio)” value is -2.7. Then C11U G42C C64U C94U, with -1.83. Then C11U G25U, with -5.82; and C12A C13A C62U U78G C115G C124G G127U, with -6.43; and C11U U54G G61U U106A G113C C114A, with -6.66.

Turning to C11U U33G A121C, the “polymerase ribozyme fitness (log ratio)” value was -4.56. Then C11U G120A U129G, with -1.66. Then C11U G69A A84C, with -2.03; and C11U G23A G61A G113U, with -6.08.

As for C11U G117A, the “polymerase ribozyme fitness (log ratio)” value is -2.36. Then C11U G117U, with -2.72; and C11U G117C, with -2.78.

For C12A A91G U112A G127C, the “polymerase ribozyme fitness (log ratio)” value was -1.8. Then C11U U125G, with -1.31. For the variant C11U U125A, the “polymerase ribozyme fitness (log ratio)” value was -0.822. Then C11U U78C C94U, with -1.61; and C11U G35A A37U C124A U132A, with -4.07; and C11U G52A C56U C72G U109G, with -5.83. Then C12A A37U U78C C82U A108G, with -3.38; and C11U G63U A84U C89U, with -2.9; and C11U G45C G57A G61U U132C, with -3.81.

C12A A37C G71A A108G U112G: the “polymerase ribozyme fitness (log ratio)” value was -7.07. Then C12A A27U, with -3.57; and C12A A18U C56U A68C C79U C115U A118C U131C, with -6.43. Then C11U G45C C88A, with -0.484. Then C12A C13G G45C G63A A119U C124A U132A, with 0.867. As to C11U G47A G48A, the “polymerase ribozyme fitness (log ratio)” value is -2.36. On to C12A A46U C62U C98G C115G U132G, for which the “polymerase ribozyme fitness (log ratio)” value was -6.35. Then C11U G48C, with -1.61; and C12A A43C G61U C123G, with -0.577. Then C11U G39U A43G, with -3.16; and C11U U112G, with -0.177. Then C11U G45A G48A A74U, with -2.5. For C12A A84U G110A C114U, the “polymerase ribozyme fitness (log ratio)” value was -5.31.

For the variant C11U U132A, the “polymerase ribozyme fitness (log ratio)” value is -0.17.

For the variant C11U G60A U78C A95U U112A U116G, the “polymerase ribozyme fitness (log ratio)” value is -3.18.

Turning to C12A A16U C56G C124A, the “polymerase ribozyme fitness (log ratio)” value is -0.00308. As to C12A C15A U132A, the “polymerase ribozyme fitness (log ratio)” value is -3.86. Take C12A C13G: the “polymerase ribozyme fitness (log ratio)” value is -0.617.

With C12A C13A, the “polymerase ribozyme fitness (log ratio)” value was -1.97.

Consider C12A C22U G45U C49U A68C G120U, for which the “polymerase ribozyme fitness (log ratio)” value was -7.43.

As to C11U U78A U87A C99U C115A, the “polymerase ribozyme fitness (log ratio)” value was -4.73.

Turning to C11U G52A C94G C104A A121G, the “polymerase ribozyme fitness (log ratio)” value is -2. Then C12A A75G C114A, with -3.82.

As to C12A A16U A50U A74U, the “polymerase ribozyme fitness (log ratio)” value was -5.14. Take C11U U96A: the “polymerase ribozyme fitness (log ratio)” value was -1.94. Then C12A C15G C53U C88U U112A G113U C123A U129C, with -3.91. Then C12A A37U, with -1.73; and C12A A37G, with -0.967. Then C11U G122A G128C U131C, with -0.489; and C12A C15A G47U C62U U78C A83U G120C U133A, with -2.07. Take C12A A66C U78A: the “polymerase ribozyme fitness (log ratio)” value is -2.43.

C11U G135A: the “polymerase ribozyme fitness (log ratio)” value is -1.27. Then C11U G135U, with -1.81.

Turning to C11U G42U, the “polymerase ribozyme fitness (log ratio)” value was -2.17.

Regarding C12A C22A U59A G61C, the “polymerase ribozyme fitness (log ratio)” value is -5.61. Then C11U U92C G127A, with -3.76. Consider C12A A29C A84C, for which the “polymerase ribozyme fitness (log ratio)” value is -3.21.

Turning to C12A A43U A46U G71U, the “polymerase ribozyme fitness (log ratio)” value is -3.4. Then C11U G61C, with -1.64; and C11U G61U, with -0.841; and C11U U30A, with -4.5.

With C11U G69U, the “polymerase ribozyme fitness (log ratio)” value amounted to 0.459. Then C11U U106A, with -0.58; and C12A A18C U81G G120A, with -5.16. Then C12A C22A A46U C79U, with -6.1; and C12A A41C U92G A111G, with -2.42.
